T1: GST-SVIP (Drosophila SVIP, CG32039), Q8IQC6
T1 chain: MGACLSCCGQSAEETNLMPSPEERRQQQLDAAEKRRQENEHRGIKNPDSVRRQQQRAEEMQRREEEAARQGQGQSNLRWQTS


Biological target: T1, GST-SVIP (Drosophila SVIP, CG32039), …
Assay: in vitro binding titration assay
Details: chain shown with the change;; parent: 0.70 uM

Row | Binder | Kd [nM]
1 | MBP-VCP^N-D1 (Drosophila VCP, N-terminal and first D1 ATPase domain), Q7KN62 R152H (protein) MADSKGEDLATAILKRKDRPNRLIVEEAQNDDNSVVSLSQAKMDELQLFRGDTVILKGKRRKETVCIVLSDDTCPDEKIRMNRVVRNNLCVHLSDVVSVQSCPDVKYGKRVRILPIDESTEGVTGNLFEIYLKPYFLEAYRPIHMGDNFIVHAAMRPIEFKVVLTDPEPYCIVAPETVIFCDGDPIKREEEEESLNAVGYDDIGGCRKQLAQIKEMVELPLRHPSLFKAIGVKPPRGILMYGPPGTGKTLIARAVANETGAFFFLINGPEIMSKLAGESESNLRKAFEEAEKNSPAIIFIDEIDAIAPKRDKTHGEVERRIVSQLLTLMDGMKKSSHLIVMAATNRPNSIDPALRRFGRFDREIDIGIPDATGRLEVLRIHTKNMKLHDDVDLEQIAAESHGHVGADLASLCSEAALQQIREKMDLIDLEDDKIDAEVLASLAVTMENFRYAMTKSSPSALRETVVEVPNTTWTDIGGLESVKKELQELVQYPVEHPDKFLKFGMQPSRGVLFYGPPGCGKTLLAKAIANECQANFISVKGPELLTMWFGESEANVRDIFDKARSAAPCVLFFDELDSIAKARGGNVGDAGGAADRVINQILTEMDGMGAKKNVFIIGATNRPDIIDPAILRPGRLDQLIYIPLPDDKSREAILKANLRKSPLAKEVDLTYIAKVTQGFSGADLTEICQRACKLAIRQAIEAEIRREKERAENQNSAMDMDEDDPVPEITSAHFEEAMKFARRSVSDNDIRKYEMFAQTLQQSRGFGQNFRFPGQTGNTSGSGNNLPVNSPGDNGDDDLYS | 640
2 | MBP-VCP^N-D1 (Drosophila VCP, N-terminal and first D1 ATPase domain), Q7KN62 A229E (protein) MADSKGEDLATAILKRKDRPNRLIVEEAQNDDNSVVSLSQAKMDELQLFRGDTVILKGKRRKETVCIVLSDDTCPDEKIRMNRVVRNNLCVHLSDVVSVQSCPDVKYGKRVRILPIDESTEGVTGNLFEIYLKPYFLEAYRPIHMGDNFIVRAAMRPIEFKVVLTDPEPYCIVAPETVIFCDGDPIKREEEEESLNAVGYDDIGGCRKQLAQIKEMVELPLRHPSLFKEIGVKPPRGILMYGPPGTGKTLIARAVANETGAFFFLINGPEIMSKLAGESESNLRKAFEEAEKNSPAIIFIDEIDAIAPKRDKTHGEVERRIVSQLLTLMDGMKKSSHLIVMAATNRPNSIDPALRRFGRFDREIDIGIPDATGRLEVLRIHTKNMKLHDDVDLEQIAAESHGHVGADLASLCSEAALQQIREKMDLIDLEDDKIDAEVLASLAVTMENFRYAMTKSSPSALRETVVEVPNTTWTDIGGLESVKKELQELVQYPVEHPDKFLKFGMQPSRGVLFYGPPGCGKTLLAKAIANECQANFISVKGPELLTMWFGESEANVRDIFDKARSAAPCVLFFDELDSIAKARGGNVGDAGGAADRVINQILTEMDGMGAKKNVFIIGATNRPDIIDPAILRPGRLDQLIYIPLPDDKSREAILKANLRKSPLAKEVDLTYIAKVTQGFSGADLTEICQRACKLAIRQAIEAEIRREKERAENQNSAMDMDEDDPVPEITSAHFEEAMKFARRSVSDNDIRKYEMFAQTLQQSRGFGQNFRFPGQTGNTSGSGNNLPVNSPGDNGDDDLYS | 580
3 | MBP-VCP^N-D1 (Drosophila VCP, N-terminal and first D1 ATPase domain), Q7KN62 T259A (protein) MADSKGEDLATAILKRKDRPNRLIVEEAQNDDNSVVSLSQAKMDELQLFRGDTVILKGKRRKETVCIVLSDDTCPDEKIRMNRVVRNNLCVHLSDVVSVQSCPDVKYGKRVRILPIDESTEGVTGNLFEIYLKPYFLEAYRPIHMGDNFIVRAAMRPIEFKVVLTDPEPYCIVAPETVIFCDGDPIKREEEEESLNAVGYDDIGGCRKQLAQIKEMVELPLRHPSLFKAIGVKPPRGILMYGPPGTGKTLIARAVANEAGAFFFLINGPEIMSKLAGESESNLRKAFEEAEKNSPAIIFIDEIDAIAPKRDKTHGEVERRIVSQLLTLMDGMKKSSHLIVMAATNRPNSIDPALRRFGRFDREIDIGIPDATGRLEVLRIHTKNMKLHDDVDLEQIAAESHGHVGADLASLCSEAALQQIREKMDLIDLEDDKIDAEVLASLAVTMENFRYAMTKSSPSALRETVVEVPNTTWTDIGGLESVKKELQELVQYPVEHPDKFLKFGMQPSRGVLFYGPPGCGKTLLAKAIANECQANFISVKGPELLTMWFGESEANVRDIFDKARSAAPCVLFFDELDSIAKARGGNVGDAGGAADRVINQILTEMDGMGAKKNVFIIGATNRPDIIDPAILRPGRLDQLIYIPLPDDKSREAILKANLRKSPLAKEVDLTYIAKVTQGFSGADLTEICQRACKLAIRQAIEAEIRREKERAENQNSAMDMDEDDPVPEITSAHFEEAMKFARRSVSDNDIRKYEMFAQTLQQSRGFGQNFRFPGQTGNTSGSGNNLPVNSPGDNGDDDLYS | 1230

— PMC7820495
